Assay results taken from patent US6471689B1, “Implantable drug delivery catheter system with capillary interface” (Thomas Jefferson University, priority 1999, dated 2002).

Assay: Human insulin infusion via implanted drug delivery catheter system (DDCS) in rats, plasma insulin and glucose versus time
Format: in vivo
Conditions: for Time at which blood insulin levels peaked post infusion: human insulin 10 milliU/kg/min, 20 weeks post implantation
From the text: The devices were implanted in 4 rats weighing ˜350 gm. Each animal was implanted with 2 devices: a mesenteric DDCS, implanted within the loose connective tissue of the bowel mesentery, and a subcutaneous DDCS implanted in the dorsal subcutaneous loose connective tissue. Catheters were primed with saline and proximal ends sealed. Catheters were then coiled and secured within the abdominal and subcutaneous spaces, respectively. There were no perioperative surgical complications and all 4 animals increased to a mean weight of 592±83 gm by 20 weeks.
The proximal portion of the catheters was exteriorized at 20-weeks post implantation and human insulin infusions were started at 10 milliU/kg/min with infusion rates of 60 μL/hr after careful determination of catheter dead space volume. Two animals were randomly assigned to receive insulin via mesenteric DDCS and two animals received infusions via subcutaneous DDCS. When the infusion was terminated, depth of anesthesia was increased and DDCS and surrounding tissue were explanted and immediately immersed in 10% buffered formalin for histological analysis. Tissue specimens were embedded in paraffin and 7-10 microns sections were prepared for H and E stains.

Substance: insulin
- Time at which blood insulin levels peaked post infusion (mesenteric DDCS): ≤ 5 min
- Blood glucose concentrations during insulin infusion (mesenteric and subcutaneous DDCS, 10 milliU/kg/min, measured at 5, 15, 30 min, not fasted, isoflurane anesthesia): decreased in proportion to increasing insulin concentrations
- Time at which blood insulin levels peaked post infusion (subcutaneous DDCS): ≤ 5 min
